Experimental findings from publication PMC3817407 are described below.

Test [1] deals with T1, ECF03_1198.
T1 chain: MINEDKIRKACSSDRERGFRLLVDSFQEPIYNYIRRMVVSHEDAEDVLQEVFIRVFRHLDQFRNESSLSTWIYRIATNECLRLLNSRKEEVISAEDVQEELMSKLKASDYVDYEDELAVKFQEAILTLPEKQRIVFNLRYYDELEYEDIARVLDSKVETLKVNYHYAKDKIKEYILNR

The target of test [2] is T2, ECF25_1643.
T2 chain: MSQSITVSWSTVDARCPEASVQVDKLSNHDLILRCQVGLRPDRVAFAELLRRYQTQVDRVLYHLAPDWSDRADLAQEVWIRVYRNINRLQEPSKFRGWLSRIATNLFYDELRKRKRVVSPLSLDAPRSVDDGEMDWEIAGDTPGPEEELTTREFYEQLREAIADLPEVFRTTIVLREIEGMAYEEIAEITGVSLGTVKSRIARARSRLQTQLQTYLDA

The target in test [3] is T3, ECF01_3473.
T3 chain: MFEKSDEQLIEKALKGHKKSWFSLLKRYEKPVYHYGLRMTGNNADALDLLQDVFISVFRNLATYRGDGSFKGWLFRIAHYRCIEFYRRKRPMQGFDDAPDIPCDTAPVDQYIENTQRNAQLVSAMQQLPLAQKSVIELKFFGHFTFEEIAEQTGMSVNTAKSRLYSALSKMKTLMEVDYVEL

The target of test [4] is T4, ECF28_1088.
T4 chain: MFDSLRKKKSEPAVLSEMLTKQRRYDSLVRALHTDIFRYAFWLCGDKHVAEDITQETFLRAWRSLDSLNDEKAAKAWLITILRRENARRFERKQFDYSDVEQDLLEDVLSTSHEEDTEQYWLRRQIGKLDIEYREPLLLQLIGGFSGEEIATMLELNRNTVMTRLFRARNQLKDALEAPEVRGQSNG

Test [5] concerns the target T5, ECF20_992.
T5 chain: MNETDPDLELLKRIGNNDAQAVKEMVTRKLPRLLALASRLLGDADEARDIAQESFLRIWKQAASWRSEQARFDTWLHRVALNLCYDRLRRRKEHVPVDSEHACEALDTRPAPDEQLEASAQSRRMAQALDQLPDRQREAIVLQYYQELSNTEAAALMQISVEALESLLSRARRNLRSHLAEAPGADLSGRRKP

The target in test [6] is T6, ECF28_1040.
T6 chain: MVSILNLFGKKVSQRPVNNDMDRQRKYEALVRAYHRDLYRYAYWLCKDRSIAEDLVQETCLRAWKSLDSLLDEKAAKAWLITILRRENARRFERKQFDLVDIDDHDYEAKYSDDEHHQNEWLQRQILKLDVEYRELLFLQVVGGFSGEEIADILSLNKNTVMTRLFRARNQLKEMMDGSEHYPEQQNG

For test [7], the target named is T7, ECF03_1244.
T7 chain: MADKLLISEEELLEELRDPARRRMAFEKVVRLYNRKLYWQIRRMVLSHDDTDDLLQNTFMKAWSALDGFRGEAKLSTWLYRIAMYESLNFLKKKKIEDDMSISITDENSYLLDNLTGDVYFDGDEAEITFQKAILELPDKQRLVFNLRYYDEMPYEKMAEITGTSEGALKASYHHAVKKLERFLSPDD

Test [8] concerns the target T8, ECF35_3582.
T8 chain: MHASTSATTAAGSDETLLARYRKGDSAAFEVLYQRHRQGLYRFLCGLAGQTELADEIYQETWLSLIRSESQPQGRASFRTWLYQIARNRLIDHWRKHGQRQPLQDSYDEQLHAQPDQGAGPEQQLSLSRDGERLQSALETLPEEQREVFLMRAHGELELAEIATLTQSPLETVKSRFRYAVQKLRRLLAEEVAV

In test [9] the target is T9, ECF15_524.
T9 chain: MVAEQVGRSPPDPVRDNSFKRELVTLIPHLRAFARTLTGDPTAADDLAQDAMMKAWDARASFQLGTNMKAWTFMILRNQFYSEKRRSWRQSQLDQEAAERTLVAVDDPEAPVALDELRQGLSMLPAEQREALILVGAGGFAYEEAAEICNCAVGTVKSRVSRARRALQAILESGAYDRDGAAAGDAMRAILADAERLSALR

Test [10] addresses T10, ECF02_915.
T10 chain: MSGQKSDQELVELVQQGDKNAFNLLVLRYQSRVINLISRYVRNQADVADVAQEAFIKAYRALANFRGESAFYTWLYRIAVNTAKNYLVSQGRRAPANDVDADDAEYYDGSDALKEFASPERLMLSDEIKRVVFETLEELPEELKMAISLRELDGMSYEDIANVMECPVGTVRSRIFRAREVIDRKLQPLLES

Test [11] has as its target T11, ECF25_1645.
T11 chain: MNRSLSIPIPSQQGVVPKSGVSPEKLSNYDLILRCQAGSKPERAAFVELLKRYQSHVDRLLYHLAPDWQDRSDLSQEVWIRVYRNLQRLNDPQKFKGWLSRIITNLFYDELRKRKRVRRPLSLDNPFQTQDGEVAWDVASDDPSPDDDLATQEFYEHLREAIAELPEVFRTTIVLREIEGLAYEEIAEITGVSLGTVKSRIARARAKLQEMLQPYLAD

Test [12] deals with T12, ECF37_2513.
T12 chain: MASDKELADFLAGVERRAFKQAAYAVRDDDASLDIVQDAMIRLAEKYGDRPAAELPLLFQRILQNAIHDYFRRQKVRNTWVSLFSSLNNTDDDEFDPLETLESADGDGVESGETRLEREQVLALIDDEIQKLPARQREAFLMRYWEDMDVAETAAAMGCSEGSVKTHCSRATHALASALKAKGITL

Test [13] addresses T13, ECF38_1322.
T13 chain: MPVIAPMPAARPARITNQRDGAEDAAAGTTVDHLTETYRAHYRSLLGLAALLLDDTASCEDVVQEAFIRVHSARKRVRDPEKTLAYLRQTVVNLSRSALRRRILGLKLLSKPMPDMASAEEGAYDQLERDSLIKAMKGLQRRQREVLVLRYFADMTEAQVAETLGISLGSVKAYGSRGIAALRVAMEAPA

Test [14] deals with ECF26_4464.
The target of test [15] is T14, ECF22_1147.
T14 chain: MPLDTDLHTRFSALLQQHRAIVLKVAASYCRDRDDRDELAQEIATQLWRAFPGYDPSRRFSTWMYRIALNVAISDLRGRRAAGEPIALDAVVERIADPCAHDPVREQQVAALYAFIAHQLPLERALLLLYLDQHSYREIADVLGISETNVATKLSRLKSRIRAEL

“And” between values parts separate entries of the source, which are not always exact repeats. Equal entries are not always repeated.

B1: AS16_973 (protein)
chain: MKTDDLIALLAAGEGPVPRHAVGRRMAVAALGGLTAALLLTITLYGVRSDITEVAQTPLFWGKVAFPTSLALIGLWLTSRLARPGGKGAAGWKMLGLPLLLVWCGAAVSIAGAPVDARADLLFGRTWRTCALNIALLSVPAFVTVFWALKGLAPTRLRLAGAAGGLLAGSSATVAYCLHCPEMGVPFWGVWYVLGMLVPTVLGAWWGPRMLRW
Turning to B1, the fold repression in test [1] is 0.72; in test [2], 0.594 and 0.667; in test [3], 0.602; in test [4], 1.04; in test [5], 0.636; in test [6], 1.39. Besides, the fold repression was 0.783 in test [7]; 0.722 in [8]; 0.668 in test [9]; 0.403 in test [10]; 0.538 in [11]; 1.04 in test [12]. Also, the results for the fold repression in test [13], in [14] and in test [15] were 0.629, 1.46 and 1.2, respectively.

B2: AS15_524 (protein)
chain: MNFGVEDMIEHVPMEDKRKGAAALDEARLRQQAIGVKLRQMFDEVVNEPVPDEFLAILRKAERPAGGE
On to B2, for which the fold repression in test [1] was 3.92; in [2], 2.89 and 3.07; in test [3] it was 9.89; in test [4] it was 3.64; in [5] it was 5.56; in test [6], 4.67. In addition, the fold repression in [7] stood at 2.96; in [8] it was 2.42; in [9] it was 31.4; in test [10], 2.67; in test [11] it was 3.69; in test [12] it was 4.17. Also, the fold repression in [13] stood at 4.8; in test [14] it was 28.2; in test [15], 6.96.

B3: AS16_3622 (protein)
chain: MMKTDELISLLATAEGPVDRHALARRLGLALLAGLLGALLLTVALYGVRSDLAEVARTPLFWAKVALPTSLALLGLWLTQRLARPGVRGGALWGLLGVPLLLVWLGAAISLFGAPPEARADLIFGRTWRTCALNITLLSTPVFIAVFWALRGLAPTRLRQAGAAGGLLAGSTATLVYCLHCPEMGVPFWGLWYLLGMLVPTLLGAVLGPRLLRW
In the case of B3, the fold repression in [1] was 2.71; in test [2] it was 1.55 and 1.67; in [3], 2.63; in [4] it was 2.18; in [5] it was 2.48; in [6], 3.02. In addition, the fold repression came to 2.09 in test [7]; 1.67 in [8]; 3.36 in test [9]; 1.26 in [10]; 1.53 in test [11]; 4.97 in test [12]. Besides, the fold repression turned out to be 2.34 in test [13], 8.91 in test [14] and 8.27 in test [15].

B4: AS14_1324 (protein)
chain: MSGSRPEPEGHLAEQHLGDRLSALVDGELGHDARERVLAHVATCPKCKAEVDAQRRLKNVFAEAAPPAPSESFLARLQGLPGGGDSDGGGSPFSGLPGGFGASAASGVFGPRRDERFEFDYVPAGSHTPVLPSATSGRGFRIHEVGRHESDRSASRGLRFAFAAAGAVSLAAIALGGVTLGTPDTTTEARGSGSGSNVTPLRTPGSAAATGSESQRRRTAGPLLGQGQRALGDLPVASTTASAPLLPGMPAPAGGDARQQAVRALTTPVTAGAAAMSPLIRPLEAVPPLSLSSWSAAPEVRPPGLLAAPDPAPSPYPAASPAASSSPLR
With B4, the fold repression in test [1] is 3.58; in test [2], 3.84 and 3.33; in test [3] it was 8.34; in test [4], 3.46; in test [5], 6.81; in [6] it was 4.3. The fold repression came to 3.13 in [7]; 4.28 in [8]; 5.32 in test [9]; 2.86 in [10]; 3.18 in test [11]; 3.89 in test [12]. Also, the fold repression in test [13] stood at 2.76; in test [14], 15.9; in [15] it was 8.

B5: AS15_436 (protein)
chain: MAQSTEPKASPQEATAKGGDNTKGKSRKELQQQIDENLRRVYEEALVQEVPDRFAMLLDQLRQKGTGK
As to B5, the fold repression in [1] was 3.84; in test [2], 1.19 and 1.27; in test [3], 4.77; in [4], 2.98; in [5], 1.95; in test [6], 4.28. The fold repression was determined as 1.54 in test [7]; 1.1 in test [8]; 33.1 in test [9]; 1.55 in [10]; 1.87 in test [11]; 5.1 in [12]. Further, the fold repression was 2.66 in test [13], 24.7 in test [14] and 6.02 in [15].
